Assay results taken from the nanobody polyreactivity screen of Harvey et al. (2022).

Assay: yeast display, Sf9 membrane polyspecificity reagent, FACS + sequencing; frameworks hold sequencing errors
Summary of the method: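 Galactose-induced (36–48 hours) yeast carrying a synthetic nanobody display library were exposed to 10% biotinylated, detergent-solubilized Sf9 membrane reagent at 4 °C for 1 hour. FACS followed streptavidin microbead enrichment, using low and high (top ~1%) gates for expression (anti-HA) and reagent binding (streptavidin). Colony PCR, MiSeq 2 × 250 sequencing and CDR-length filtering followed. Labels for polyreactivity reflect the gate of origin.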

Sequence	polyreactivity (PSR sort gate)
QVQLVESGGGLVQAGGSLRLSCAASGSTFAQYAMGWYRQAPAKERELVAVISKRGGRTYYADSVKGRFTISRDNGKNTVYLQMNSLKPEDTAGYYCAADSGGPGYAMDYWGQGTQVTVSS	high polyreactivity
QVQLVESGGGLVQAGGSLRLSCAASGRIFPGNAMGWYRQAPGKEREFVAAINTRGGITYYADSVKGRFTISRDNAKNTVYLQMNSLKPEDTAVYYCARTYYPVDGEYDYWGQGTQVTVSS	low polyreactivity
QVQLVESGGGLVQAGGSLRLSCAASGFIFYRNTMGWYRQAPGKEREFVAAIRWRGGSTYYADSVKGRFTISRDNAKNTVYLQMNSLKPEDTAVYYCAADSRPVYSGFEYWGQGTQVTVSS	high polyreactivity
QVQLVESGGGLVQAGGSLRLSCAASGSTFDIYAMGWYRQAPGKERKLVAVISGGDGSTYYADSVKGRFTISRDNAKNTVYLQMNSLKPEDTAVYYCEYDYWGQGTQVTVSS	low polyreactivity
QVQLVESGGGLVQAGGSLRLSCAASGLIFIAYAMRWYRQAPGKERELVAAISSSGGSTYYADSVKGRFTISRDNAKNTVYLQMNSLKPEDTAVYYCAADRYAWGTGRYGYWGQGTQVTVSS	low polyreactivity
HVQLVESGGGLVQAGGSLRLSCAHSGIIFRTNAMGWYRQAPGKEREFVAAISAGATRKYYADSVKGRFTISRDTAKNTVYLQMNSLKPEDTAVYYCAAASGYDYWGQGTQVTVSS	high polyreactivity
QVQLVESGGGLVQAGASLRLSCAASGSTFLLNAMGWYRQAPGKERELVAAITSSGGTNYADSVKGRFTISRDNAKNTVYLQMNSLKPEDTAVYYCNTRYSPGYQGSEVDYWGQGTQVTVSS	low polyreactivity
QVQLVESGGGLVQAGGSLRLSCAASGSIFRVYAMGWYRQSPGKERELVASIRSRGGSTYYADSVKGRFTISRDNAKNTVYLQMNSLKPEDTAVYYCGKSYWGGDEYWGQGTQVTVSS	low polyreactivity
QVQLVESGGGLVQAGGSLRLSCAPSGSILWLNAMGWYRQAPGKERELVADITRGGSTYYADSVKGRFTISRDNAKNTVYLQMNSLKPEDTAVYYCAAKRGKTYQRFDYWGQGTQVTVSS	high polyreactivity
QVQLVESGGGLVQAGGSLRLSCAASGRIFTGYAMGWYRQAPGKERELVAAISRGGSTNYADSVKGRFTISRDNAMNTVYLQMNSLKAEDTSVYYCACGVHWDRGDYWGQGAQVTVSS	low polyreactivity
QVQLVESGGGLVQAGGSLRLSCAASGYNFDGYAMGWYRQAPGKERELVAAINSGGGTYYADSVKGRFTISRDNAKNTVYLQMNSLKPEDTAVYYCSKYTYDYWGQGTQVTVSS	low polyreactivity
QVQLVESGGGLVQAGGSLRLSCAASGRISFRYAMGWYRPAPGKERELVAAINRGGITNYADSVKGRFTISRDNAKNTVYLQMNSLKPEDTAVYYCAARWRGSGGFDYWGQGTQVTVSS	high polyreactivity
QVQLVESGGGLVQAGGSLRLSCAASGSIFYIYAMGWYRQAPGKERELVAAITSSVGRTYYADSVKGRFTISRDNAKNTFYLQMNSLKAEDTAVYYCAADYYYSQVAYVYWGHGTQVTVSS	high polyreactivity
QVQLVESGGGLVQAGGSLRLSCAASGIIFHFNDMGWTTQAPGKERELVAAISRRGSTYYADSVTGRFTISRDNAKNSVYLQMNSLKPEDTAVYYCAKYRGRVKTYNGGYDYWGQGTQVSVSS	low polyreactivity
QVQLVESGGGLVQAGGSLRLSCAASGRIFTLYAMGWYRQAPGKERELVAGISRSGGSTYYADSVKGRFTISRDNAKNTVYLQMNSLKPEDTAVYYCNAVPIYYAWRRNKPFDYWGQGTQVTVSS	low polyreactivity
QVQLVESGGGLVQAGGSLRLSCDASGSIFRPNAMGWYRQPPGKERELVAAITWIAGGTYYADSVKGRFTISRDNAKNTVYLQMNSLKPEDTAVYYCAARWYFQTGVGRYYHYDYWGQGTQVTVSS	high polyreactivity
QVQLVESGGGLVQAGGSLLLSCAASGRIFSYNAMGWYRQAPGKERELVAVISRSDTSTYYADSVKGRFTISRDNAKNTVYLQMNSLKPEDTAVYYCNADGPSYFRYSGYYYWGQGTQVTVSS	low polyreactivity
QFQLVESGGGFVQAGGSLRLSCAASGYTFQRYAMGWYRQAPGKERELVATISKRGGSTYYADSVKGRFTISRDNAKNTDYLQMNSLKPEDTAVYYCNKLRGLHNGYDYWGQGTQVTVSS	high polyreactivity
QVQLVESGGGLVQAGGSLRLSCAASGSTFVRNAMGWYRQATGKERELVAAITTSGARTYYADSVKGRFTISRDNAKNTVYLQMNSLKPEDTAVYYCAAEYKGRTYRFDYWGQGTQVTVSS	low polyreactivity
QVQLVESGGGLVQAGGSLRLSCAASGRIFDQNAMGWYRQAPGKERELVAAITWSGGSTNYADSVKVRFTISRDNSKNTVYLLMNSLKTEDTAVYYCNKVSYGYSTYGYWGQGTQVTVSS	low polyreactivity
QVQLVESGGGLLQAGGSLRLSCAASGSIFNKYAMGWYRQATGKEREFVAAITQGGGRTYYADSEKVRFTISRDNAKNTDYLQMNILKPEDTAVYYCNYNFNYPYYRYGYWGQGTQVTVSS	high polyreactivity
QVQLVESGGGLVQAGGSLRLSCAASGSIFSRYAMGWYRQAPGKERELVADITTRGGRTYYADSVKGRFTISRDNAKNTVYLQMNSLKPEDTAVYYCATLHSYRYRGGGDYWGQGTQVTVSS	high polyreactivity

Sequence	polyreactivity (PSR sort gate)
QVQLVESGGGLVQAGGRLRLSCAASGSIFNRYAMGWYRQAPGKERELVAAISSTGSTYYADSVKGRFTISRDNAKNTVYLQMNSLKPEDTAVYYCNADATHDLLRVDTYEYWGQGTQVTVSS	low polyreactivity
QVQLVESGGGLVQAGGSLRLSCAASGRTFSGNTMGWYRQAPGKEREFVATISQSGTITSYADSVKGRFTISRDNAKNTVYLQMNSLKPEDTAVYYCAARAVYYSSRGWITRFDYWGQGTQVTVSS	high polyreactivity
QVQLVESGGGLVQAGGSLRLSCAASGSIFGAYAMGWYRQAPGKERELVAVISRSGGRTYYADSVKGRFTISRDNAKNTVYLQMNSLKPVDTAVYYCAADTRYVQYDYWGQGTQVTVSS	high polyreactivity
QVQLVESGGGLVQAGGSLRISCAASGSIFDPYAMGWYRQAPGKERELVAAITSGGSTYYADSVKGRFTISRDNAKNTVYLQMNSLIPEDTAVYYCAKDFDIYYSKYDYWGQGTQVTVSS	low polyreactivity
QVHLVESGGGLVQAGGSLRLSCAASGRTFPYNAMGWYRQAPGKERELVATIDSSGTRTFYADSVKGRFTISRDNANNTVYLQMNSLKPEDTAVYYCAKGWYAYKLYGYDYWGQGTQVTVSS	low polyreactivity
QVQLVESGGGLLQAGGSLRLSCAASRSTFFWYAMGWYRQAPGKERELVAANSKTGGSTYYADSVKGRFTISRDNAKNTVYLQMNSLKPEDTAVYYCARDYSWYYYGSQLFAHDYWGQGTQVTVSS	low polyreactivity
QVQLVESGGGLVQAGGSLRLSCAASGSIFDDNAMGWYRQAPGKEREMVAAISANDGSTYYADSVKGRFTISRDNAKNTVYLQRNSLNPEDTAVYYCAADVKDYAAQMDSWGQGTQVTVSS	low polyreactivity
QVQLVESGGGLVQAGGSLRLTCAASGSIFPDNAMAWYRQAPGNERELVAAITSSGGSTYYADSVKGRLRISRDNAKNTVYLQMNSLKPADSAVYYCAKGRSYSVAKRRLYKYWGQGTEVTVSS	high polyreactivity
QVQLVESGGGLVQAGCSLRLSCAASGFILSDNAMGWYRQAPGKERELVAAINSGGSTYYADSVKGRFTISRDNAKNTVYFQMNSLKPEDSAVYYCAADYSTWLRAYDYWGQGTQVTVSS	low polyreactivity
QGQLVESGGGLVQAGGSLRLSCAASGRIFPGNVMGWYRPAPGKERELVAAISSSGGSTYYADSVKGRFTISRDNAKNTVYLQMNSLKPEDTAVYYCAADSSDWPYDYWGQGTQVTVSS	low polyreactivity
QVQLVESGGGLVQAGGSLRLTCAASGSTFWYYAMGWYRQAPGKERELVASITYSGGSTYYADSVKGRFTISRDNAKNTVYLQMNSLKPEDTAVYYCAKDGVSPSLRAYAAGYDYWGQGTQVTVSS	low polyreactivity
QVPLVESGGGLVQAGGSLRLSCAASGFTFGWYAMGWYRQAPGKERELVAAISSNGGRTSYADSVKGRFTISRDNAKNTVYLQMNSLKPEDTAVYYCNADDRYIWTYWGWTIYDYWGQGTQVTVSS	high polyreactivity
QVQLVESGGGLVQAGGSLRLSCAASGFTFDSYAMGWYRQAPGTERELVASISSSGSTNYADSVKGRFTISRDNAKNTVYLQMNSLKPEDTAVYYCAAESRYPFIYEYWGQGTQVTVSS	low polyreactivity
QVQLVESGGGLVQAGGSLRLSCAASGSTLYVNAMGCYIQAPGKERELVAAISSGGGRTYYADSVKGRFTISRDNAKNTVYLQMNSLKPEETAVYYCARKPYYPYDYWGQGTLVTVSS	low polyreactivity
QVQLVESGGGLVQAGGSLRLSCAASGFTFTWYVMGWYRQAPGKERELVAAISRSGGSTYYADSVKGRFTISRDNAKNTVYLQMNSLKPEDTAVYYCAAVGTSRYDYWGQGTQGTVSS	high polyreactivity
QVQLVESAGGLVQAGGSLSLSCAASGSTFYKYTMGWDRQAPGKERELVAAISGSGTTTYYADSVKGRFTISRDNAKNTVYLQMNSLKPEDTAVYYCAAHSRSSSGYHWGQGTQVTVSS	high polyreactivity
QVQLVESGGGLVQAGGSLRLSCAASGRIFTRNAMGWYRQAPGKEREFVAAISWSGGSTYYADSVKGRFTISRDNAKNTFYLQMNSLKPEDTAVYFCAAKNSGGYVSWYDYWGQGTQVTVSS	low polyreactivity
QVQLVESGAGIVQAGGSLRVSSAASGSIFHSYAMGWYRQEPGKERELVAGITYRTGSTYYADSVKGRVTNSRDNAKNTVYFQMNSLKPEDTAVYYCAAGYYSRYFEAFEYYYWGLGTQVTVSS	high polyreactivity
QVQLVESGGGLVQAGGSLRLSCAASGGTFSPYAMGWYRQAPGKERELVAAIRYSGDRTYYADSVKGRFTISRDNAKNTVYLQMNSLKPEDTAVYYCAGPYYNTGYRYGYWGQGTQVTVSS	high polyreactivity
QVQLVESGGGLVQAGGSLRLSCAASGSIFRKYAMGWYRQAPGKEREFVAAISRSGGGTYYADSVKGRFTISRDNAKNTVYLQMNSLKPEDTAVYYCAAEFRTGLQGEHYYWGQGTQVTVSS	low polyreactivity
QVQLVESGGGLVQAGGSLRLRCAASGSTFYLNAQGWYRQATGKEREFVAAITVSGGSTYYADSVKARFTISRDNAKNTVYLKMNSLKPEDTAVYYCARELLSPTYQRWYYYWGQGTQVTVSS	low polyreactivity
